Test results: PMC6426841, “Reversible histone glycation is associated with disease-related changes in chromatin architecture” (Nature Communications, 2019)
Ends that are not written are not given here.

Biological target: T1, recombinant His6-tagged wild-type DJ-1 (UniProt Q99497 1-189)
T1 construct: DJ-1 (PARK7), wild type, expressed from the plasmid pET3a-His-DJ1; No removal of the His6 tag is described; The plasmid pET3a-His-DJ1 (Addgene 51488) tells the exact construct; also called PARK7; recombinant DJ-1; source: E. coli Rosetta (DE3), purified (Ni2+-NTA agarose, desalting)
T1 sequence (looked up): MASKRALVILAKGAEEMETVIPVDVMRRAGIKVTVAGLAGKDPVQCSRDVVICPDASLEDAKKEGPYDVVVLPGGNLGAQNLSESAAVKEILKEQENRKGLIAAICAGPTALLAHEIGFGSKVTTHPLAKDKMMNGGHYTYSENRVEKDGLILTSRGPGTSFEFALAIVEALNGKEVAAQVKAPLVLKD
Assay: pull-down; biotinylated H3 (1-18) peptide, glycated or not, incubated with recombinant DJ-1 at 4 °C for 2 h; peptide pulled down on BSA-blocked streptavidin magnetic beads, washed 3 times with 1x PBS pH 7.4, boiled; western blot with anti-DJ-1
Settings: both partners purified

- binding result: binds
B1: glycated (MGO-treated) biotinylated H3 N-terminal tail peptide (residues 1-18) (peptide, UniProt Q71DI3 2-19, looked up)
peptide: ARTKQTARKSTGGKAPRK
modifications: not fully specified (N-terminus, C-terminus); also: MGO glycation adducts, sites not given here
notes: histone H3 N-terminal tail, residues 1-18; The methods speak of 'N-terminal biotinylated H3 peptides', the results of a C-terminal biotin; also called glycated H3 tail; glycated biotin-H3 tail; source: synthetic peptide (Fmoc-SPPS, RP-HPLC purified), treated with MGO at 1:3 peptide:MGO, 37 °C, 30 min; not shown: biotin, C-terminal, kept
